Experimental findings from patent US20050065082 are described below.

The target in data set [1] is GST-KIAA0596CT (N-terminal GST fusion protein of human KIAA0596CT, the C-terminal region, amino acids 639 to 1217, of KIAA0596) [GST: P08515].
The target in data set [2] is GST (glutathione S-transferase) [GST: P08515].
The target of data set [3] is T1, GST-KIAA1491 complete (N-terminal GST-fusion protein of KIAA1491 complete).
T1 chain: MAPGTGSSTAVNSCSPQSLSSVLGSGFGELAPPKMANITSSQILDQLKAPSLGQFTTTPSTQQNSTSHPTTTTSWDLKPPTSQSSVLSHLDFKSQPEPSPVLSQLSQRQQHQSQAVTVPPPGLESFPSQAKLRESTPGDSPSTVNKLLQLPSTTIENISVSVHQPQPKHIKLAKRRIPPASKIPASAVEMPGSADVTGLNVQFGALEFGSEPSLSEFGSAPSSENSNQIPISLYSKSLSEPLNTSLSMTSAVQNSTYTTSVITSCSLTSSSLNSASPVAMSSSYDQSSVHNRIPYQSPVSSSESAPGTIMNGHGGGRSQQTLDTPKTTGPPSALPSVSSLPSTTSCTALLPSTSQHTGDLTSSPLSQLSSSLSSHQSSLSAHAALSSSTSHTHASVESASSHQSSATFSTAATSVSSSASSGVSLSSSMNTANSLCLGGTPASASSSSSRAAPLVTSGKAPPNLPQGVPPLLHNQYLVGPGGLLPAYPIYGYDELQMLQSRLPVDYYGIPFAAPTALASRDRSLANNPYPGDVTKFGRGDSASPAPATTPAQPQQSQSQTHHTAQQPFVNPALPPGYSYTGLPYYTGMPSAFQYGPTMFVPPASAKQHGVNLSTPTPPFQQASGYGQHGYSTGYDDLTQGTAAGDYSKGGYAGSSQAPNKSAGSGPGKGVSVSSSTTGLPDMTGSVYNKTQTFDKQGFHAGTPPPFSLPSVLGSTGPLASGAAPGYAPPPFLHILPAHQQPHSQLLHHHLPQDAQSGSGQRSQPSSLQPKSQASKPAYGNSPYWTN

The target in data set [4] is T2, GST-BPL1 (N-terminal GST fusion protein of human BPL1, holocarboxylase synthetase).
T2 chain: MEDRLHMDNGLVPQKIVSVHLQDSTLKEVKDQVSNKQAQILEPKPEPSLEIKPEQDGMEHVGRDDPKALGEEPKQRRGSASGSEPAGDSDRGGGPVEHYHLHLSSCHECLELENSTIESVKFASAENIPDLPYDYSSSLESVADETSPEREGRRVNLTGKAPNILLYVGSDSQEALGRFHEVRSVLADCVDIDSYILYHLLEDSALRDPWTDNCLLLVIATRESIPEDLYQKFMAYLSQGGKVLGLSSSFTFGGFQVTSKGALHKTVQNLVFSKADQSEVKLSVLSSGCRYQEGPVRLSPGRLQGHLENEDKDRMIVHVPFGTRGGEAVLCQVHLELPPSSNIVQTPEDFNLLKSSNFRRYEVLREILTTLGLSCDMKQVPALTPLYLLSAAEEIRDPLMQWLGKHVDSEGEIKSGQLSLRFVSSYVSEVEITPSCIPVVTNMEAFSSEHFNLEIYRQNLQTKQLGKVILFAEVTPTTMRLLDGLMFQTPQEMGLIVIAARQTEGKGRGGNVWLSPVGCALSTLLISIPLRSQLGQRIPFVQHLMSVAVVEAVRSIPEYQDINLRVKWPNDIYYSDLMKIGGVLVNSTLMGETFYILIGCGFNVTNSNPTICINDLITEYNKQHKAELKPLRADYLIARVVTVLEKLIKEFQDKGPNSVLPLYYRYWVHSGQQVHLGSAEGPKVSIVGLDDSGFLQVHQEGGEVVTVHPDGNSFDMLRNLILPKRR

Data set [5] addresses GST-BMAL1 (N-terminal GST fusion protein of human BMAL1; BMAL1b was used).

GST-BMAL1 (N-terminal GST fusion protein of human BMAL1; BMAL1b was used), sequence (chain, as listed by the source): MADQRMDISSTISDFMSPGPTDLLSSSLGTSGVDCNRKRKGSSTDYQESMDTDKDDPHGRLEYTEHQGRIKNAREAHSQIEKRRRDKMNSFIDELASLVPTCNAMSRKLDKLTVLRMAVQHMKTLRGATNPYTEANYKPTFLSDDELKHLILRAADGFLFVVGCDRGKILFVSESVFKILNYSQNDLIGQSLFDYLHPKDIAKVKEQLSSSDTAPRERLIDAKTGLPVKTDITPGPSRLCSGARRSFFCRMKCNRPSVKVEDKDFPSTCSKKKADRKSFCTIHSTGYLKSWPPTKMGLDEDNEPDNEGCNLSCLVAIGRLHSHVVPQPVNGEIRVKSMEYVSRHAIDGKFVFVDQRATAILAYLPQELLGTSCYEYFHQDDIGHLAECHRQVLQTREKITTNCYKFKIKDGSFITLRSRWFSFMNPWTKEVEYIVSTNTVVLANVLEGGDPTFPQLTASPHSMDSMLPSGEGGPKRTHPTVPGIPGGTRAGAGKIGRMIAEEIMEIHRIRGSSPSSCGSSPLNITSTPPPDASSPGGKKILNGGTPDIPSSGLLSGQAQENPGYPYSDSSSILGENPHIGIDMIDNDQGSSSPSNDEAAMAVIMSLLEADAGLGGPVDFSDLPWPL

B1: His-JNK3 (activated human JNK3 (JNK3α1) with an N-terminal histidine-tag) (protein)
chain: MSLHFLYYCSEPTLDVKIAFCQGFDKQVDVSYIAKHYNMSKSKVDNQFYSVEVGDSTFTVLKRYQNLKPIGSGAQGIVCAAYDAVLDRNVAIKKLSRPFQNQTHAKRAYRELVLMKCVNHKNIISLLNVFTPQKTLEEFQDVYLVMELMDANLCQVIQMELDHERMSYLLYQMLCGIKHLHSAGIIHRDLKPSNIVVKSDCTLKILDFGLARTAGTSFMMTPYVVTRYYRAPEVILGMGYKENVDIWSVGCIMGEMVRHKILFPGRDYIDQWNKVIEQLGTPCPEFMKKLQPTVRNYVENRPKYAGLTFPKLFPDSLFPADSEHNKLKASQARDLLSKMLVIDPAKRISVDDALQHPYINVWYDPAEVEAPPPQIYDKQLDEREHTIEEWKELIYKEVMNSEEKTKNGVVKGQPSPSAQVQQ
For B1, in data set [1], the Relative Strength (%) of the phosphorylated GST-c-Jun (1-79) band, 1.0 µg added protein (none added = 100) was determined as 70.6% and the Relative Strength (%) of the phosphorylated GST-c-Jun (1-79) band, 2.0 µg added protein (none added = 100) is 33.5%. In data set [2], this protein showed a Relative Strength (%) of the phosphorylated GST-c-Jun (1-79) band, 1.0 µg added protein (none added = 100) of 92.7% and a Relative Strength (%) of the phosphorylated GST-c-Jun (1-79) band, 2.0 µg added protein (none added = 100) of 93.6%. For the same protein, in data set [3], the Relative Strength (%) of the phosphorylated GST-c-Jun (1-79) band, 1.0 µg added protein (none added = 100) was 71.5%; the Relative Strength (%) of the phosphorylated GST-c-Jun (1-79) band, 2.0 µg added protein (none added = 100) was 67.1%; the “phosphorylation of GST-KIAA1491 complete by JNK3 (in vitro kinase assay, [γ-32P] ATP, autoradiography)” value was “GST-KIAA1491 complete were phosphorylated by JNK3 ... the phosphorylation was dependent on the dose of JNK3”. Also, in data set [4], the Relative Strength (%) of the phosphorylated GST-c-Jun (1-79) band, 1.0 µg added protein (none added = 100) is 81.6%; the Relative Strength (%) of the phosphorylated GST-c-Jun (1-79) band, 2.0 µg added protein (none added = 100) was 59.7%; the “phosphorylation of GST-BPL1 by JNK3 (in vitro kinase assay, [γ-32P] ATP, autoradiography)” value is given as “The phosphorylation of GST-BPL1 by JNK3 was observed. Since the phosphorylation was dependent on the dose of JNK3”. For the same protein, in data set [5], the Relative Strength (%) of the phosphorylated GST-c-Jun (1-79) band, 1.0 µg added protein (none added = 100) worked out at 15.3%; the Relative Strength (%) of the phosphorylated GST-c-Jun (1-79) band, 2.0 µg added protein (none added = 100) came to 4.7%; the “phosphorylation of GST-BMAL1 by JNK3 (in vitro kinase assay, [γ-32P] ATP, autoradiography)” value is “the phosphorylation of GST-BMAL1 by JNK3 was observed ... the phosphorylation was dependent on the dose of JNK3”.
